Data on one molecule can be found in patent US20150359847A1, “METHOD AND COMPOSITION FOR CONFERRING NEUROPROTECTION” (BLOOD SYSTEMS RESEARCH INSTITUTE, priority 2014, published 2015).

Test [1] deals with mouse model of controlled cortical impact (CCI). Description: Elevated Plus Maze in controlled cortical impact (CCI) TBI mice. Format: in vivo. The source says:
The mouse controlled cortical impact (CCI) injury model was used as previously described. In brief, mice were anesthetized with 5% isoflurane and 1:1 O2:N2 mixture. Animals were mounted on a stereotaxic frame and were secured by ear bars and an incisor bar. Anesthesia was maintained with 2.0% isoflurane and 1:1 O2:N2 mixture. A 5-mm-diameter craniotomy was made midway between bregma and lambda on the right side, with the medial edge of the craniotomy 1 mm lateral to midline. Injury was produced using a magnetic impactor mounted at an angle of 110° from the vertical plane. A single impact at a velocity of 4+/−0.2 m/s was used inflict a moderate to severe injury (1.2-1.3 mm impact depth). After injury, the incision was closed. Sham animals underwent identical surgeries except for impact injury. Core body temperature was monitored using a rectal thermometer and maintained at 36.8° C.-37.2° C. with a heating pad throughout the procedure. […] Animal research was performed with approval of the Institutional Animal Care and Use Committee at ISIS Services LLC (San Carlos, Calif., USA). […]
The elevated plus maze was used to assess anxiety behavior in mice. […] The frequency of entries into the open and closed arms was recorded with an overhead camera using tracking software (Ethovision, Noldus Information Technology, Leesbury, Va.).

The test system of the next test is hippocampal neurons. Put plainly: Neurite chamber assay (AXIS axon isolation device). To be noted: 7 days treatment with TIMP3. The test is classed as cell-based, mouse. Here is the method:
For AXIS™ Axon Isolation devices, chambers were first sterilized from one side of the groves to the other under flow gradient with 70% ethanol to avoid trapping air in the groves. Afterwards the slides were completely immersed in 70% ethanol for 5 mins. Upon removing the slide from the ethanol bath, chambers were washed twice with PBS under a flow gradient to flush the chambers, the procedure was then repeated with Poly-D-Lysine. Chambers were then incubated with Poly-D-Lysine overnight at 4° C. Prior to plating cells, chambers were flushed with ‘plating media’ (see tissue culture section). Simultaneous plating of the single cell suspension in both wells on side of the groves enabled equilibrium to be obtained and a sufficient number of cell remained in the chamber adjacent to the groves. Hippocampi from 2 pups were used per chamber. Cells were allowed to attach for 4 hrs before excess cells in the wells were detached using the rubber tip from a sterile 1 ml syringe, plating media removed and ‘maintenance media’ with treatments were added. Flow gradients were maintained throughout the culture steps and media exchanges were performed with this in mind.

The test system of test [2] is mouse model of controlled cortical impact (CCI). Put plainly: Morris Water Maze in CCI TBI mice. Format: in vivo. The source says: The mouse controlled cortical impact (CCI) injury model was used as previously described. In brief, mice were anesthetized with 5% isoflurane and 1:1 O2:N2 mixture. Animals were mounted on a stereotaxic frame and were secured by ear bars and an incisor bar. Anesthesia was maintained with 2.0% isoflurane and 1:1 O2:N2 mixture. A 5-mm-diameter craniotomy was made midway between bregma and lambda on the right side, with the medial edge of the craniotomy 1 mm lateral to midline. Injury was produced using a magnetic impactor mounted at an angle of 110° from the vertical plane. A single impact at a velocity of 4+/−0.2 m/s was used inflict a moderate to severe injury (1.2-1.3 mm impact depth). After injury, the incision was closed. Sham animals underwent identical surgeries except for impact injury. Core body temperature was monitored using a rectal thermometer and maintained at 36.8° C.-37.2° C. with a heating pad throughout the procedure. For treatments, TIMP3 (60.0 μg/kg) or vehicle control (PBS) administration was performed at 2, 24, and 48 hrs after injury via tail vein injections in a total volume of 125 μl. Animal research was performed with approval of the Institutional Animal Care and Use Committee at ISIS Services LLC (San Carlos, Calif., USA). Mice received humane care according to the criteria outlined by the National Research Council's Institute of Laboratory Animal Resources in the “Guide for the Care and Use of Laboratory Animals”. Neurocognitive testing conducted at UT Houston was in compliance with University of Texas Houston Institutional Animal Care and Use Committee.
A modified Morris water maze task was used to assess long-term memory. Mice were trained to find the location of a hidden platform in one day. This was followed by probe at 30 mins following the last trial and another probe 24 hrs later. Mice were given 10 training trials with an inter-trial interval of 15 mins. Each trial was initiated by placing the animal into the water maze at one of four randomly chosen starting positions. The animal was allowed to search for the hidden platform for a period of 1 min, and the time to find the platform recorded. […] At thirty minutes and twenty-four hours following the final training trial, animals were tested in a probe trial in which the platform was removed from the tank and allowed to search for a period of 1 min. Movement within the maze was monitored using a video camera linked to […] software (Ethovision™, Noldus Information Technology, Leesbury, Va.). Measures of memory, including latency to first platform crossing, and number of crossings were recorded.

Setting [3] is: long-term probe, TBI+TIMP3 vs TBI alone.

B1: TIMP3: Recombinant tissue inhibitor of matrix metalloproteinase-3, a soluble protein released by MSCs, obtained from Amgen Inc. (protein)
chain: CTCSPSHPQDAFCNSDIVIRAKVVGKKLVKEGPFGTLVYTIKQMKMYRGFTKMPHVQYIHTEASESLCGLKLEVNKYQYLLTGRVYDGKMYTGLCNFVERWDQLTLSQRKGLNYRYHLGCNCKIKSCYYLPCFVTSKNECLWTDMLSNFGYPGYQSKHYACIRQKGGYCSWYRGWAPPDKSIINATDP
Regarding B1, the “frequency of entries into the closed arms (Elevated Plus Maze)” value in test [1] (TBI+TIMP3 vs TBI alone, day 3) is given as “comparable frequency”. In addition, in test [1] (TIMP3 60 μg/kg tail-vein at 1 hr, 24 hrs, 72 hrs post-TBI, EPM on day 3, vs TBI alone), the “frequency of entries into the open arms (Elevated Plus Maze)” value came to 11±1.8. Moreover, the “neurite outgrowth in neurite chamber” value with hippocampal neurons was “increased neurite outgrowth”. Besides, in test [2] (TBI+TIMP3 vs TBI alone), the “ability to learn the platform location during training” value is reported as “did not significantly differ”. For the same molecule, in test [2] (TIMP3 60 μg/kg IV x3, long-term memory probe 24 hrs after training, days 8-9), the “total number of correct platform crossings (Morris Water Maze)” value came out at 1.9±0.4. Besides, in test [2] (setting [3]), the “latency to first platform crossing” value is on record as “did not significantly differ” and the “time in the area around the platform (concentric rings)” value was “spent more time in the area around the platform”.
